Data from US7829301B2, “Screening assays for binding antagonists of the AMD-associated variant of factor H (H384)” (The University of Manchester, priority 2006, dated 2010).
Changes are numbered by the printed parent chain.

T1: FMOD (Bos taurus, UniProt P13605)
T1 construct: FMOD was isolated from bovine articular cartilage; from tissue; host or cells: bovine articular cartilage
T1 sequence (P13605 19-376): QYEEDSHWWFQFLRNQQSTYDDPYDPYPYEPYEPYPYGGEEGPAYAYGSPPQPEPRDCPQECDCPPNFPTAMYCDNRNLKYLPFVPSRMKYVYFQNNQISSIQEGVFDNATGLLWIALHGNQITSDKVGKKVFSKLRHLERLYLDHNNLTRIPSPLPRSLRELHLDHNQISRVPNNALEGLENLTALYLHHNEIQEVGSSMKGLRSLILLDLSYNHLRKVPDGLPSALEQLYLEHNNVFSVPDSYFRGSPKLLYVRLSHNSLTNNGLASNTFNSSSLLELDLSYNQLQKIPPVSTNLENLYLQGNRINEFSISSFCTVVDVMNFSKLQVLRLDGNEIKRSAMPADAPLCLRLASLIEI

B1: FHCCP6-8(H384): recombinant protein of Factor H CCPs 6-8, H384 allotype, with N-terminal non-authentic glycine (SEQ ID NO: 1) (protein, listed as Homo sapiens)
chain: MGTLKPCDYPDIKHGGLYHENMRRPYFPVAVGKYYSYYCDEHFETPSGSYWDHIHCTQDGWSPAVPCLRKCYFPYLENGYNQNHGRKFVQGKSIDVACHPGYALPKAQTTVTCMENGWSPTPRCIRVKTCSKSSIDIENGFISESQYTYALKEKAKYQCKLGYVTADGETSGSITCGKDGWSAQPTCI
modifications: VARIANT (1)...(188) Protein sequence of the FHCCP6-8 (H384) construct
B2: FHCCP6-8(Y384): recombinant Factor H CCPs 6-8, Y384 variant obtained by site-directed mutagenesis (SEQ ID NO: 3) (protein, listed as Homo sapiens)
chain: B1 chain with H84Y
modifications: VARIANT (1)...(188) FHCCP6-8 (Y384 allotype of mature Factor H)

Assays:
necrotic Jurkat T cells = assay: Flow cytometry binding to necrotic cells; assay type: cell-based; conditions: 10 μg/ml
Method: Jurkat T cells (ATCC), were grown in RPMI, supplemented with glutamine, penicillin, streptomycin and 10% (v/v) heat inactivated FCS (all from Invitrogen). Necrosis was induced by heat whereby the cells were brought to a concentration of 10^6 per ml and incubated at 56° C. for 30 minutes in RPMI 1640 without FCS (Trouw et al. (2005) J. Exp. Med. 201, 1937-1948).
Binding of FHCCP6-8 variants to necrotic cells was analyzed using flow cytometry. Protein binding was analyzed by incubating cells with varying concentrations of the FHCCP6-8 variants (0 to 10 μg/ml) in FACS binding buffer (10 mM HEPES, 150 mM NaCl, 5 mM KCl, 1 mM MgCl2, 1.8 mM CaCl2), with shaking for 30 minutes at room temperature. After washing twice in the same buffer, cells were stained with goat anti-FH polyclonal antibodies (Quidel) for 30 minutes at room temperature. This was followed by matched FITC-labelled secondary antibodies (Dako).

[1] = Microtitre plate assay: biotinylated-4IS heparin binding to immobilized proteins
Method: Alternatively, the unlabelled FHCCP6-8(H384), FHCCP6-8(Y384) and mutant proteins (i.e., K370A, R386A, K387A in the context of the FHCCP6-8(H384) construct) were adsorbed at 1 μg/ml in PBS onto microtitre plates (Nunc Maxisorb, Kastrup, Denmark) and their ligand-binding activities at pH 7.3 were determined using biotinylated-4IS heparin essentially as described in Mahoney et al. (2005) ibid. Plate assays were carried out in 20 mM HEPES, 130 mM NaCl, 0.05% (v/v) Tween-20, pH 7.3 and the level of bound heparin determined as described above for the biotinylated proteins.
In these plate assays all data points were determined in quadruplicate from each of two independent experiments.

FMOD = molecular target: T1, FMOD; assay: Protein/protein binding assay with coated FMOD; parameters: species or system bovine
Method: FMOD was isolated from bovine articular cartilage (Heinghrd et al., (1986) J. Biol. Chem. 261, 13866-13872) and recombinant CRP was obtained from Calbiochem. Deglycosylated FMOD was prepared by treatment with N-glycosiadase F (Roche Applied Science) as previously described (Sjöberg et al. (2005) J. Biol. Chem. 280, 32301-32308).
CRP or FMOD was coated overnight at 4° C. onto microtiter plates (Maxisorp, Nunc) at a concentration of 10 μg/ml in 75 mM sodium carbonate buffer, pH 9.6. Wells treated only with coating buffer or 1% (w/v) BSA (Sigma) in coating buffer (for the assays involving FMOD) were used as negative controls. Between each step the wells were washed extensively with 50 mM Tris-HCl, 150 mM NaCl, 0.1% (v/v) Tween 20, pH 7.5. All wells were blocked with 1% (w/v) BSA (Sigma) in phosphate buffered saline (Invitrogen) for 1 hour at 37° C. […] The amount of bound protein was assessed using a goat polyclonal anti-FH antibody (Quidel, Cat # A312) followed by HRP-labeled anti-goat secondary antibodies (Dako) and the OPD development kit (Dako). Detection of biotinylated protein was performed using a StreptABComplex/HRP-kit from Dako, and in both cases the absorbance at 490 nm was measured to quantify protein binding.

| Molecule | binding to necrotic cells relative to the other variant (necrotic Jurkat T cells) | binding to 4IS heparin relative to FHCCP6-8(H384) [1] | binding to immobilized FMOD relative to the other variant (FMOD; biotinylated FHCCP6-8 variants, all concentrations tested) | affinity for FMOD compared to H384 variant (FMOD; direct binding assay) |
| --- | --- | --- | --- | --- |
| B1 | binds necrotic cells better |  |  |  |
| B2 |  | bind less well | significantly stronger signals | affinity is increased |
